Assay [1] addresses IL-31 (target protein of mAb1, immobilized). The assay can be described thus: cell-based or functional assay.
For assay [2] the target is unchanged. The assay can be described thus: SPR (Biacore T200), target amine-coupled on CM5, antibody flowed, 15 C, 1:1 model.
In assay [3] the target is canine FcRn complex (FcRn-α subunit and β-microglobulin) with c-terminal 6x His + BAP tag, amine-immobilized (Example 3) (canine). Description: SPR (Biacore), FcRn amine-coupled on CM5, IgG flowed, pH 6, 15 C.
Assay [4] has as its target canine FcRn complex (FcRn-α subunit and β-microglobulin), biotin labeled by BirA, captured on SA chip (Example 5) (canine). Description: SPR (Biacore), biotinylated FcRn captured on SA chip, IgG flowed, pH 7.4, 15 C. A general note: SPR reads the build-up and loss of mass on a sensor chip optically.
The target is the same in assay [5]. The assay can be described thus: SPR (Biacore), biotinylated FcRn captured on SA chip, IgG flowed, pH 6, 15 C.
The target in assay [6] is canine FcRn complex (FcRn-α subunit and β-microglobulin) with c-terminal 6x His + BAP tag, amine-immobilized (Example 3) (canine). Description: SPR (Biacore), FcRn amine-coupled on CM5, IgG flowed, pH 7.2, 15 C.

Changes are numbered by the printed parent chain. Numbers in names are those of the source.

B1: caninized anti-IL31 antibody 34D03 (mAb1), canine IgGB (65), wild-type (antibody)
heavy: EVQLVESGGDLVKPGGSLRLSCVASGFTFSNYGMSWVRQAPGKGLQWVATISYGGSYTYYPDNIKGRFTISRDNAKNTLYLQMNSLRAEDTAMYYCVRGYGYDTMDYWGQGTLVTVSSASTTAPSVFPLAPSCGSTSGSTVALACLVSGYFPEPVTVSWNSGSLTSGVHTFPSVLQSSGLYSLSSMVTVPSSRWPSETFTCNVAHPASKTKVDKPVPKRENGRVPRPPDCPKCPAPEMLGGPSVFIFPPKPKDTLLIARTPEVTCVVVDLDPEDPEVQISWFVDGKQMQTAKTQPREEQFNGTYRVVSVLPIGHQDWLKGKQFTCKVNNKALPSPIERTISKARGQAHQPSVYVLPPSREELSKNTVSLTCLIKDFFPPDIDVEWQSNGQQEPESKYRTTPPQLDEDGSYFLYSKLSVDKSRWQRGDTFICAVMHEALHNHYTQESLSHSPGK
VL: EIVMTQSPASLSLSQEEKVTITCKASQSVSFAGTGLMHWYQQKPGQAPKLLIYRASNLEAGVPSRFSGSGSGTDFSFTISSLEPEDVAVYYCQQSREYPWTFGQGTKLEIK
B1: in assay [1], the IC50 (cell based potency assay) came to 1.1 nM. The Kd (usually the concentration at which binding is half-saturated) in assay [2] was 0.483 nM; in assay [3] it was 15 to 24.4 nM; in assay [4] it was 18700 nM; in assay [5], 19.9 nM.

B2: caninized anti-IL31 antibody 34D03 (mAb1), canine IgGB (65), N434H (antibody)
heavy: B1 heavy with N440H
VL: B1 VL
In assay [1], B2 had an IC50 (cell based potency assay) of 0.99 nM. Besides, the Kd is 5000 nM in assay [6], 0.373 nM in assay [2], 0.7 to 1.3 nM in assay [3] and 6.45 nM in assay [5].

B3: caninized anti-IL31 antibody 11E12 (mAb1 of Table 5), canine IgGB, N434H (antibody, part only; not given: light chain, part only)
heavy: EVQLVQSGAEVKKPGASVKVSCKTSGYTFKYYDINWVRQAPGAGLDWMGWIFPGDGGTKYNETFKGRVTLTADTSTSTAYMELSSLRAGDIAVYYCARGGTSVIRDAMDYWGQGTLVTVSSASTTAPSVFPLAPSCGSTSGSTVALACLVSGYFPEPVTVSWNSGSLTSGVHTFPSVLQSSGLYSLSSMVTVPSSRWPSETFTCNVAHPASKTKVDKPVPKRENGRVPRPPDCPKCPAPEMLGGPSVFIFPPKPKDTLLIARTPEVTCVVVDLDPEDPEVQISWFVDGKQMQTAKTQPREEQFNGTYRVVSVLPIGHQDWLKGKQFTCKVNNKALPSPIERTISKARGQAHQPSVYVLPPSREELSKNTVSLTCLIKDFFPPDIDVEWQSNGQQEPESKYRTTPPQLDEDGSYFLYSKLSVDKSRWQRGDTFICAVMHEALHHHYTQESLSHSPGK
Regarding B3, the Kd in assay [4] came out at 83900 nM; in assay [5] it was 1 nM.

Source of the values: patent publication US20230242635A1 (published 2023).
